Reference: the DeepSol protein solubility set

Experiment: soluble on expression in E. coli; label from the status in PepcDB or PDB records

Q: Which “soluble on expression in E. coli” value does the source give for “GSSHHHHHHSSGLVPRGSQILCVGLVVLDVISLVDKYPKEDSEIRCLSQRWQRGGNASNSCTILSLLGAPCAFMGSMAPGHVADFVLDDLRRYSVDLRYTVFQTTGSVPIATVIINEASGSRTILYYDRSLPDVSATDFEKVDLTQFKWIHIEGRNASEQVKMLQRIDAHNTRQPPEQKIRVSVEVEKPREELFQLFGYGDVVFVSKDVAKHLGFQSAEEALRGLYGRVRKGAVLVCAWAEEGADALGPDGKLLHSDAFPPPRVVDTLGAGDTFNASVIFSLSQGRSVQEALRFGCQVAGKKCGLQGFDGIV” here?
A: soluble

Q: Which “soluble on expression in E. coli” value does the source give for “GSSPNLRYPIADVSGGIGMSPNYRFRQSMWIGIVSYSGSGLNWRVQVNSDIFIVNDYIHICLPAFDGFSIADGGDLSLNFVTGLLPPLLTGDTEPAFHNDVVTYGAQTVAIGLSSGGTPQYMSKNLWVEQWQDGVLRLRVEGGGSITHSNSKWPAMTVSYPRSFT” here?
A: soluble

Q: With “GSVAVEDQPDVSAVLSAYNQQGDPTMYEEYYSGLKHFIECSLDCHRAELSQLFYPLFVHMYLELVYNQHENEAKSFFEKFHGDQECYYQDDLRVLSSLTKKEHMKGNETMLDFRTSKFVLRISRDSYQLLKRHLQEKQNNQIWNIVQEHLYIDIFD” as the sequence, how does the “soluble on expression in E. coli” value read?
A: soluble

Q: Which “soluble on expression in E. coli” value does the source give for “GVKCEPIEELTISVPEEYSSKMIDMVTRRKGDLVSMETQGDRVNIEFDMPSRGIIGLRTNVLTASAGEAIMAHRFKCYQPYKGEIERRSNGSMIAMESGTAFAYAIDKLQDRGKFFIYPQDEVYAGQV” here?
A: not soluble

Q: With “GVTGISTGFIDLNKKTAGLQPSDLIIVAARPSMGKTTFAMNLCENASLHDIEDHNDLDENGNPRKKPAKPVLIFSLEMPADQIMMRMLASLSRVNQTKIRTGQIHDDEEWAKISSTVAILQERKNIFIDDSAGLTPTELRSRARRIYRENGGLSLIMVDYLQLMRVPNFSDNRTLEIAEISRSLKALAKELEVPVVALSQLNRSLEQRQDKRPVNSDL” as the sequence, how does the “soluble on expression in E. coli” value read?
A: not soluble

Q: Which “soluble on expression in E. coli” value does the source give for “HDDGLPAFRYSAELLGQLQLPSVALPLNDDLFLYGRDAEAFDLEAYLALNAPALRDKSEYLEHWSGYYSINPKVLLTLMVMQSGPLGAPDERALAAPLGRLSAKRGFDAQVRDVLQQLSRRYYGFEEYQLRQAAARKAVGEDGLNAASAALLGLLREGAKVSAVQGGNPLGAYAQTFQRLFGTPAAELLQPSNRVARQLQAKAALAPPSNLMQLPWRQGYSWQPNGAHSNTGSGYPYSSFDASYDWPRWGSATYSVVAAHAGTVRVLSRCQVRVTHPSGWATNYYHMDQIQVSNGQQVSADTKLGVYAGNINTALCEGGSSTGPHLHFSLLYNGAFVSLQGASFGPYRINVGTSNYDNDCRRYYFYNQSAGTTHCAFR” here?
A: not soluble

Q: Which “soluble on expression in E. coli” value does the source give for “HERRTVLAEWSIGIDIGGTFTDLVALDYAGGKLHSLKMLTTYDDPSLAVMEGVRQLMATCGIAASEVGRVVHATTLFTNALISRAGARTGLLCNQGFMDAIEIGNERKYDLYDLAIDRPPPLVPRDLRREIPGRLDAHGNELEPLDRQAVVAMARSLADAGATSIAVCLLHAYASPRHEQQVHAWIRQAL” here?
A: not soluble

Q: With “HGPKTGTPETKTVEIPFETKREFNPKLQPGEERVKQEGQPGSKTITTPITVNPLTGEKVGEGQPTEEITKQPVDKIVEFGGEK” as the sequence, how does the “soluble on expression in E. coli” value read?
A: soluble

Q: For “HHHHHHMASSAQDGNNPLFSPYKMGKFNLSHRVVLAPMTRCRALNNIPQAALGEYYEQRATAGGFLITEGTMISPTSAGFPHVPGIFTKEQVREWKKIVDVVHAKGAVIFCQLWHVGRASHEVYQPAGAAPISSTEKPISNRWRILMPDGTHGIYPKPRAIGTYEISQVVEDYRRSALNAIEAGFDGIEIHGAHGYLIDQFLKDGINDRTDEYGGSLANRCKFITQVVQAVVSAIGADRVGVRVSPAIDHLDAMDSNPLSLGLAVVERLNKIQLHSGSKLAYLHVTQPRYVAYGQTEAGRLGSEEEEARLMRTLRNAYQGTFICSGGYTRELGIEAVAQGDADLVSYGRLFISNPDLVMRIKLNAPLNKFNRKTFYTQDPVVGYTDYPFLQGNGSNGPLSRL”, which “soluble on expression in E. coli” value is on record?
A: soluble

Q: With “HLEDVKFMIVGLPDVGLVGAITGMHLIRSKDMSYTVGIDHYGALPPVVIMNRGRVLHPIRIYRSGDVAALITDVPILPAAIPSFSAAVVEYSRRRGIEYIISATGVGNPKRLEQEKPSLYWLASDKKASLLASSLRMASEPEQGIIVGPYAIILKEAMKKHVHNLVLLADSFIDIPDPEAAAVIVEGINSITGLNVSVDELIKQAEEIKLRMRDLMKETKAVMARMGKEMEYRAPILYT” as the sequence, how does the “soluble on expression in E. coli” value read?
A: not soluble

Q: For “HLKFQSVFDIIGPVMIGPSSSHTAGAVRIGKVVHSIFGEPSEVTFHLYNSFAKTYQGHGTDKALVAGILGMDTDNPDIKNSLEIAHQKGIKIYWDILKDSNSPHPNTAKITVKNGDRSMSITGVSIGGGNIQVTELNG”, which “soluble on expression in E. coli” value is on record?
A: not soluble

Q: Which “soluble on expression in E. coli” value does the source give for “HLPKPTLWAEPGSVITQGSPVTLRCQGGQETQEYRLYREKKTAPWITRIPQELVKKGQFPIPSITWEHAGRYRCYYGSDTAGRSESSDPLELVVTGAYIKPTLSAQPSPVVNSGGNVTLQCDSQVAFDGFILCKEGEDEHPQCLNSQPHARGSSRAIFSVGPVSPSRRWWYRCYAYDSNSPYEWSLPSDLLELLVLG” here?
A: soluble

Q: Which “soluble on expression in E. coli” value does the source give for “HMARSLYPLGVSRSLPPYRRTFNHQTFIFVKSILRLGVSMEEEEFDIREALANGEHLEKILIMAKYDESVLKKLIELLDDDLWTVVKNAISIIMVIAKTREDLYEPMLKKLFSLLKKSEAIPLTQEIAKAFGQMAKEKPELVKSMIPVLFANYRIGDEKTKINVSYALEEIAKANPMLMASIVRDFMSMLSSKNREDKLTALNFIEAMGENSFKYVNPFLPRIINLLHDGDEIVRASAVEALVHLATLNDKLRKVVIKRLEELNDTSSLVNKTVKEGISRLLLLEGHSSS” here?
A: soluble

Q: Which “soluble on expression in E. coli” value does the source give for “HMGARASVLSGGELDKWEKIRLRPGGKKQYKLKHIVWASRELERFAVNPGLLETSEGCRQILGQLQPSLQTGSEELRSLYNTIAVLYCVHQRIDVKDTKEALDKIEEEQNKSKKKAQQAAADTGNNSQVSQNY” here?
A: soluble

Q: With “HMSSLQRASVSFNKPGHIPFGAVQGYAPGGVPAYSNKHDHYFSGERNIEDNIFFGFKYQCVEFARRWLLVRKGLLLPDVNWACHIFQLKEVRDAATTESFAVLQVRNGTTTKPEADALLVYPSTDANPVGHVGTITEVGDDYVCVADQNYRFHKWESSCAYKLKLDHRDGIWTIIDDIDADEIEIPLGWLTFPGRANRPEGAPPVALHPSLHFKEPPKPYLLRRNFLPTESKANWLDMNNPAERLFVEEFGMDVSRTRLEEKVVSYYESNHEFHLRCVAYGTQLHAIFMEATAQVIESDEKLRLFAIPEEFWPRIRHSWKYQQTYISGRFDFAFNNETGEVKCFEYNADSASTLLECGLIQQKWAESVGLDKQDTRGSGFAVERNLKMAWANSGATGRVHFCVDEEREEQYTALYCMQAAEAVGLEGKLCILFDEFRFDDNGHVVDSDGVRVRNVWKTWMWESAITDYYAAREERGENWKPSPKDKVRLCDLLLGDDWEILYFEPMWKVIPSNKAILPMIYHNHPEHPAILKAEYELTDELRKHGYAKKPIVGRVGSNVIITSGDGVVHAESGGKYGKRNMIYQQLFELKKQDDYYAIIGGWMIGDAFSGTGIREDKSVITGVDSPFAAVRIKTDKLPHPVTLKDIDKMAEDE” as the sequence, how does the “soluble on expression in E. coli” value read?
A: soluble

Q: With “HMTHIDDYSTWDIVKATQYGIYERCRELVEAGYDVRQPDKENVTLLHWAAINNRIDLVKYYISKGAIVDQLGGDLNSTPLHWATRQGHLSMVVQLMKYGADPSLIDGEGCSCIHLAAQFGHTSIVAYLIAKGQDVDMMDQNGMTPLMWAAYRTHSVDPTRLLLTFNVSVNLGDKYHKNTALHWAVLAGNTTVISLLLEAGANVDAQNIKGESALDLAKQRKNVWMINHLQEARQAKGYDN” as the sequence, how does the “soluble on expression in E. coli” value read?
A: soluble

Q: For “HNNLLSQLGSSHNSITYDIIFGNKDTKNYYAQFAKKHQTHLYSQISSSNQQELKYVDNDPNLKIKEEAAKSTVQNLTVYS”, which “soluble on expression in E. coli” value is on record?
A: soluble

Q: For “HRPEGLEQLEAQTNFTKRELQVLYRGFKNECPSGVVNEETFKQIYAQFFPHGDASTYAHYLFNAFDTTQTGSVKFEDFVTALSILLRGTVHEKLRWTFNLYDINKDGYINKEEMMDIVKAIYDMMGKYTYPVLKEDTPRQHVDVFFQKMDKNKDGIVTLDEFLESCQEDDNIMRSLQLFQNVM”, which “soluble on expression in E. coli” value is on record?
A: soluble

Q: With “HSEEAAYYAVEIGRMFDLGDEKLEKLYWAGLLHDIGKIYVPQVVLNKTSKLDEREFELIKIHPVRGYELVKEIEGFEDVAIWIRHHHERWDGKGYPDGLKGEEIPFEARVLCVADSYQAM” as the sequence, how does the “soluble on expression in E. coli” value read?
A: soluble

Q: With “HSSGLVPRGSHMSQERILDGEEDEINHKIFDLKRTLKDNLPLDRDFIDRLKRYFKDPSDQVLALRELLNEKDLTAEQVELLTKIINEIISGSEKSVNAGINSAIQAKLFGNKMKLEPQLLRACYRGFIMGNISTTDQYIEWLGNFGFNHRHTIVNFVEQSLIVDMDSEKPSCNAYEFGFVLSKLIAIKMIRTSDVIFMKKLESSSLLKDGSLSAEQLLLTLLYIFQYPSESEQILTSVIEVSRASHEDSVVYQTYLSSVNESPHDIFKSESEREIAINILRELVTSAYKKELSR” as the sequence, how does the “soluble on expression in E. coli” value read?
A: soluble

Q: With “HVEQSNKDELLLEEITSWLEKNTDGKIVVFCGDKTVADNVYKFIEQNLPSVERHIDGKLPGFNISPQYNVLICDQSGEDGLNLQGKCRLAIHYSLPRTVMRIEQRIGRLNRYSASSIGVLPV” as the sequence, how does the “soluble on expression in E. coli” value read?
A: not soluble

Q: With “IDENSFWIEGYFKETDLAGIAPNDRATVTLLMHDDVALEGKIKSIGFGIAKKDGTTGNDLLPTVNPNFQWIRLAQRIPVKVTLNEMPKDLQLRVGMTASIKIIKH” as the sequence, how does the “soluble on expression in E. coli” value read?
A: not soluble

Q: With “IDFHRGTQGEGRVEVELSQPGAVINVHSHGSRLLVEFMKAYLPPNLERRLNVLDFATPVQSVETVARDGNVQMIIEPKGRWEHTSWQTGTSFVVEIRPMAEAED” as the sequence, how does the “soluble on expression in E. coli” value read?
A: not soluble

Q: For “IDLSNALPGSRRGFLKGAAVVGLTIGFQWSGARRALAAALPDAGFAPNAFLRIAPDDSVTVIAKHVEMGQGAYTGIATIVAEELDADWSKVRVESAPADAKRYANLAFGTMQGTGGSSAMANSWMQLREAGAKARAMLVEAAARQWQVPAAELRTRDGFVEHPTSQRKASYGSLAAAAAELPVPEKVQLKDPKDFRLIGHQAPRVDVPGKTDGSAQFTLDVSLPGMLVALLQRPPLFGATVKSFDATATRAIPGVVEVVQVPHGVAVVAKGFWAAKQGRDALKVEWDESKAEKRGSEALMAEYRKLAEQPGKPARRDGDAAKAVAGATRRIAASYEFPFLAHAPMEPLDAVVRLTADSCEIWAGDQFQTVDQGNAARTAGLKPEQVKINTLYAGGSFGRRANAWSDYIVEAVSIAKALGANGVPVKLQWTREDDIHGGFYRPMYYHRLEAGLDADGKLVGWQHRIVGQSILEGTPFAAVMVKDGIDATSVEGAANLPYAVPNVSVELSTTQVGVPVLWWRVVGSSHTVYAVEAFIDEAAQAAGKDPYLFRRDLLAEQPRLRGVLELAAEKAGWDPSRPLPAGRGRGIAVTEAFKTFVAQVVEVSVDKDGKLKVERVVCAVDCGIPINPDVIAAQMEGGIGFGLGAILHSAITLKDGKVEQNNFDGYQVLRIAEMPKVEVHIVPSGEAPTGVGEPGVAPIGPALANAIFAATGQRLYNLPFPTSFA”, which “soluble on expression in E. coli” value is on record?
A: not soluble

Q: Which “soluble on expression in E. coli” value does the source give for “IGFQRGAQGEGLVVIDLQGTNTPVDVQQQGSKVVVRFPGIKIPTHLARRLNTTDFATPVASIDSYNDGSNGVISIQSTGSYEYMAYQAENKLTISLKRPQDNV” here?
A: not soluble
